The source of these data is publication PMC7615550, “Structural mechanism of outer kinetochore Dam1:Ndc80 complex assembly on microtubules” (Science (New York, N.Y.), 2023).

For orientation: stoichiometry N means the number of molecules, sites or subunits per partner or assembly.

The chains are these.
B1: Dad4 subunit of the Dam1 complex (natural protein, S. cerevisiae)
chain: MENPHEQVQANILSRIIGNVKRLNESVAILNQELVTINNRNKNLEIMGAICDNYHSSVQFNLEATNNKKPPL
notes: Dad4, S. cerevisiae, as a subunit of the reconstituted Dam1 complex; Stood in the assay inside the whole Dam1c; also called Dad4^B; source: purified as part of Dam1c
B2: Spc34 subunit of the Dam1 complex (natural protein, S. cerevisiae)
chain: MGESLDRCIDDINRAVDSMSTLYFKPPGIFHNAILQGASNKASIRKDITRLIKDCNHDEAYLLFKVNPEKQSVSRRDGKEGVFDYVIKRDTDMKRNRRLGRPGEKPIIHVPKEVYLNKDRLDLNNKRRRTATTSGGGLNGFIFDTDLIGSSVISNSSSGTFKALSAVFKDDPQIQRLLYALENGSVLMEEESNNQRRKTIFVEDFPTDLILKVMAEVTDLWPLTEFKQDYDQLYHNYEQLSSKLRFIKKEVLLQDDRLKTMSQYHPSSSHDVAKIIRKEKDEIRRLEMEIANLQE
notes: Spc34, S. cerevisiae, as a subunit of the reconstituted Dam1 complex; Stood in the assay inside the whole Dam1c; source: purified as part of Dam1c
B3: Dam1 subunit of the Dam1 complex (natural protein, S. cerevisiae)
chain: MSEDKAKLGTTRSATEYRLSIGSAPTSRRSSMGESSSLMKFADQEGLTSSVGEYNENTIQQLLLPKIRELSDSIITLDSNFTRLNFIHESLADLNESLGSLLYGIMSNSWCVEFSQAPHDIQDDLIAIKQLKSLEDEKNNLVMELSNMERGIKRKKDEQGENDLAKASQNKQFNQPLFPSSQVRKYRSYDNRDKRKPSKIGNNLQVENEEDYEDDTSSEASFVLNPTNIGMSKSSQGHVTKTTRLNNNTNSKLRRKSILHTIRNSIASGADLPIENDNVVNLGDLHPNNRISLGSGAARVVNGPVTKNRNSMFSGRAERKPTESRHSVAKKTEKKINTRPPFR
notes: Dam1, S. cerevisiae, as a subunit of the reconstituted Dam1 complex; Stood in the assay inside the whole Dam1c; also called Dam1^Staple (residues 1-26); Dam1^C-ter; source: purified as part of Dam1c
B4: Spc19 subunit of the Dam1 complex (natural protein, S. cerevisiae)
chain: MTDALEQSVLALEGTVSVLKDSVESLKCANEPSTNLASTMLQTKRVFRLVPEYDVERSKLDLIEEVEPLVRTLGDKLRKSMGRMQRELDTLQQTYELNDLRLKKNISMDDDDALNSPDMGQEYEGRDADDVVMMASSTNEELEELKKLKEKKKQLENKLEILKQK
notes: Spc19, S. cerevisiae, as a subunit of the reconstituted Dam1 complex; Stood in the assay inside the whole Dam1c; source: purified as part of Dam1c
B5: Ask1 subunit of the Dam1 complex (natural protein, S. cerevisiae)
chain: MDSASKEETLEKLDQEITVNLQKIDSNLSFCFHKITQDIIPHVATYSEICERIMDSTEWLGTMFQETGLVNLQANAAAPVGNAPVKSLVSNNVGIFPTSAEEASRQSQTDNGPNEADSAVHVNRDVHSMFNNDSIDDFHTANITSTGQILKLPDSSDEDTGSEAVPSREQTDLTGEGHGGADDEQDESTIQRQSRKRKISLLLQQQYGSSSSMVPSPIVPNKMRKQLAHEEHINNDGDNDDENSNNIESSPLKQGHHHPKGQADDNNEGPDEEESTKEVPKPGTIIHFSTNR
notes: Ask1, S. cerevisiae, as a subunit of the reconstituted Dam1 complex; Stood in the assay inside the whole Dam1c; also called Ask1^B; source: purified as part of Dam1c
B6: Dad1 subunit of the Dam1 complex (natural protein, S. cerevisiae)
chain: MMASTSNDEEKLISTTDKYFIEQRNIVLQEINETMNSILNGLNGLNISLESSIAVGREFQSVSDLWKTLYDGLESLSDEAPIDEQPTLSQSKTK
notes: Dad1, S. cerevisiae, as a subunit of the reconstituted Dam1 complex; Stood in the assay inside the whole Dam1c; also called Dad1^A; source: purified as part of Dam1c

The target of test [1] is Dam1 complex (ten-subunit, S. cerevisiae), wild type (S. cerevisiae) (UniProt P53267). The test is described as follows: cryo-EM structure; outer kinetochore Dam1c:Ndc80c:microtubule complexes assembled on cryo-EM grids by step-wise addition of taxol-stabilized microtubules, Ndc80c, and Dam1c.
Test [2] addresses Ndc80 complex (heterotetramer of Ndc80, Nuf2, Spc24 and Spc25, S. cerevisiae), wild type (S. cerevisiae) (UniProt P40460).
The target of test [3] is microtubules (α/β-tubulin) (UniProt P02554). In words: optical trap force-rupture assay; rupture of outer kinetochore - microtubule attachments; each event is the maximum trap force before rupturing; medians; Ndc80c alone.
The target of test [4] is Dam1 complex (ten-subunit, S. cerevisiae), wild type, P53267;Q12248;P35734;P69851;P36131;Q03954. The test is described as follows: optical trap force-rupture assay. The note with it: Ndc80c + Dam1c on microtubules; N=154 (parent N=150); parent: 10.4.
Test [5] addresses microtubules (α/β-tubulin) (UniProt P02554). The test is described as follows: optical trap force-rupture assay. The following applies: Ndc80c alone (no Dam1c) on microtubules; N=81 (parent N=119); parent: 5.4.
The target in test [6] is B3. The test is described as follows: cryo-EM structure; outer kinetochore Dam1c:Ndc80c:microtubule complexes assembled on cryo-EM grids by step-wise addition of taxol-stabilized microtubules, Ndc80c, and Dam1c. The note with it: both partners purified.
For test [7], the target named is T1, Ndc80 complex (heterotetramer of Ndc80, Nuf2, Spc24 and Spc25, S. cerevisiae), wild type (S. cerevisiae, UniProt P40460 1-691; P33895 1-451; Q04477 1-213; P40014 1-221).
T1 construct: Ndc80 subunit of the S. cerevisiae Ndc80 complex; Nuf2 subunit of the S. cerevisiae Ndc80 complex; Spc24 subunit of the S. cerevisiae Ndc80 complex (no cryo-EM density visible); Spc25 subunit of the S. cerevisiae Ndc80 complex (no cryo-EM density visible); also called Ndc80c^CH; Ndc80^CC:Nuf2^CC; source: purified; copies: + + +
T1 sequence (P40460 whole entry, chain 1 of 4): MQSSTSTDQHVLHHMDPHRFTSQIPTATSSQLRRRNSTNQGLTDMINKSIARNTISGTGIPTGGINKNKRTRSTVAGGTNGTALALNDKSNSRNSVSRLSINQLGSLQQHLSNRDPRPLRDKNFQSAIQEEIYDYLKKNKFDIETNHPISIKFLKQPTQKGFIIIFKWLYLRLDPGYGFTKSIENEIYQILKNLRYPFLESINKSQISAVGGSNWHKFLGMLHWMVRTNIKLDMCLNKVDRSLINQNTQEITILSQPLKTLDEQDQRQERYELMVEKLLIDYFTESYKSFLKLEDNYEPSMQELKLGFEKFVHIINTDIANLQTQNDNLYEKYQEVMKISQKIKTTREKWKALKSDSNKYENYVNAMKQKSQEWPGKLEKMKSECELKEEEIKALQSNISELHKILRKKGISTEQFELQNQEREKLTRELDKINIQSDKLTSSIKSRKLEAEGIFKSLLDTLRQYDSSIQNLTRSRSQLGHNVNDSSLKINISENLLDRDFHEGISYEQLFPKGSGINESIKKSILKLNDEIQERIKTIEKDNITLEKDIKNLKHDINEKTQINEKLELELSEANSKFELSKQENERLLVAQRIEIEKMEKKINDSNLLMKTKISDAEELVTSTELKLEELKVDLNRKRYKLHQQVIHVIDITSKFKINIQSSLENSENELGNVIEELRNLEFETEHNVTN
T1 sequence (P33895 whole entry, chain 2 of 4): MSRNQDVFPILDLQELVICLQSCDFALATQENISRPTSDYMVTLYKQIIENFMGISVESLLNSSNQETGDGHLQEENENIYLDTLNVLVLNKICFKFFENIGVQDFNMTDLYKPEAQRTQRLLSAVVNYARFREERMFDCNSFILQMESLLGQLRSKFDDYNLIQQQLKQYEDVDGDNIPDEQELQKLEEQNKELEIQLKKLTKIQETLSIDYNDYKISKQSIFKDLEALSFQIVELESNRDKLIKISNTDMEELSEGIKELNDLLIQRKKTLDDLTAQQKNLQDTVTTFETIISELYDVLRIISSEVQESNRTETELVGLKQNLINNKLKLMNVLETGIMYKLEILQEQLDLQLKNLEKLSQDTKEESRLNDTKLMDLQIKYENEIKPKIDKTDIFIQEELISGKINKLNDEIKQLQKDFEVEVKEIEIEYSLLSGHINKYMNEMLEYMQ
T1 sequence (Q04477 whole entry, chain 3 of 4): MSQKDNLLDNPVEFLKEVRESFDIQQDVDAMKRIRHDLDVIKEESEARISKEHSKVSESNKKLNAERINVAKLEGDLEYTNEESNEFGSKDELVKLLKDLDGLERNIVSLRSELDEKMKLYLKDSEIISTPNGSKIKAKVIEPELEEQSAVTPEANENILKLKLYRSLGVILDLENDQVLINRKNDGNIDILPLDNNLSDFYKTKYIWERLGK
T1 sequence (P40014 whole entry, chain 4 of 4): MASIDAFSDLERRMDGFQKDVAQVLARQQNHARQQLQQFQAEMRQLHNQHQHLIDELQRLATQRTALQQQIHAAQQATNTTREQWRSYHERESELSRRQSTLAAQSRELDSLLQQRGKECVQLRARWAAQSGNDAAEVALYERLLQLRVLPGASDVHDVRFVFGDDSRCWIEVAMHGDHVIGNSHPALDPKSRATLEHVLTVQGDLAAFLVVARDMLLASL
The description is as above. The following applies: both partners purified.

Test [8] addresses T2, Ndc80 subunit of the Ndc80 complex (S. cerevisiae, UniProt P40460 1-691).
T2 construct: Ndc80, S. cerevisiae, as a subunit of the reconstituted Ndc80 complex; Stood in the assay inside the whole Ndc80c; also called Ndc80^CH; Ndc80^CC; source: purified as part of Ndc80c
The test is described as above. The note with it: both partners purified.

In test [9] the target is B2. The description is as above. The following applies: both partners purified.

Ndc80 complex (heterotetramer of Ndc80, Nuf2, Spc24 and Spc25, S. cerevisiae), wild type (S. cerevisiae), sequence (P40460 whole entry, chain 1 of 4): as the sequence (P40460 whole entry, chain 1 of 4) above
Ndc80 complex (heterotetramer of Ndc80, Nuf2, Spc24 and Spc25, S. cerevisiae), wild type (S. cerevisiae), sequence (P33895 whole entry, chain 2 of 4, further chain): as the sequence (P33895 whole entry, chain 2 of 4) above
Ndc80 complex (heterotetramer of Ndc80, Nuf2, Spc24 and Spc25, S. cerevisiae), wild type (S. cerevisiae), sequence (Q04477 whole entry, chain 3 of 4, further chain): as the sequence (Q04477 whole entry, chain 3 of 4) above
Ndc80 complex (heterotetramer of Ndc80, Nuf2, Spc24 and Spc25, S. cerevisiae), wild type (S. cerevisiae), sequence (P40014 whole entry, chain 4 of 4, further chain): as the sequence (P40014 whole entry, chain 4 of 4) above
T2 sequence (P40460 whole entry, one chain of several): as the sequence (P40460 whole entry, chain 1 of 4) above

As for “Dam1 complex (ten-subunit, S. cerevisiae), wild type (from UniProt P53267 1-343; Q12248 1-94; P35734 1-292; P69851 1-72; P36131 1-295; Q03954 1-165)”, the stoichiometry N in test [1] was determined as 16. In addition, in test [2], the median rupture force of Ndc80c - microtubule attachments in the presence of Dam1c (optical trap force-rupture assay) stood at 10.4 pN. “Ndc80 complex (heterotetramer of Ndc80, Nuf2, Spc24 and Spc25, S. cerevisiae), wild type (from UniProt P40460 1-691; P33895 1-451; Q04477 1-213; P40014 1-221)” registered a median rupture force in test [3] of 5.4 pN. As to “Ndc80 complex (heterotetramer of Ndc80, Nuf2, Spc24 and Spc25, S. cerevisiae), wild type (from UniProt P40460;P33895;Q04477;P40014) E568R; V590W; L594E; E597R”, the other: median rupture force in test [4] came out at 8.9 pN; in test [5], 4.5 pN. On to “Dam1 complex with the Dam1 C-terminal mutant (I258/L259/I262 mutated) (from UniProt P53267 1-343; Q12248 1-94; P35734 1-292; P69851 1-72; P36131 1-295; Q03954 1-165)”, for which the median rupture force of Ndc80c - microtubule attachments in the presence of the Dam1 C-ter mutant Dam1c (optical trap force-rupture assay) in test [2] amounted to 5.5 pN. Take B1: in test [6], the binding result was “binds”. As to B2, in test [7], the binding result was “binds”. On the same count and under the same terms, under B3 stands “binds”. Consider B4, for which the binding result in [8] and in test [9] was “binds” each time.

Take B5: in [6], the binding result is recorded as “binds”. The same measure, in the same setting: under B6 stands “binds”.
